Reference: article PMC3834821

Target: T1, GST-DAZAP1 (UniProt Q9JII5)
T1 sequence: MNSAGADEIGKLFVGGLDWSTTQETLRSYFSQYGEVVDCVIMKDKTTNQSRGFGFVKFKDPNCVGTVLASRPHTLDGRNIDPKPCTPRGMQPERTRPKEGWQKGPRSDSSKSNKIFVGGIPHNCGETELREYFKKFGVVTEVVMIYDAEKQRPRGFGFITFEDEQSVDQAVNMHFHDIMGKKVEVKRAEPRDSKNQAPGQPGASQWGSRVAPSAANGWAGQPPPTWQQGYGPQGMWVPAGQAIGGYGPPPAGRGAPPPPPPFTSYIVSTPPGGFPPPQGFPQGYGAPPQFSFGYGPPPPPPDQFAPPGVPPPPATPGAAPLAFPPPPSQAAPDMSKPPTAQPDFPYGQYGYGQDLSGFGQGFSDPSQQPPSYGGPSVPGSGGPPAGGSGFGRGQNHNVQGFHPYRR
Assay: EMSA
Details: 20 mM HEPES pH 7.6, 3 mM MgCl2, 40 mM KCl, 2 mM DTT, 5% glycerol, 5 mg/ml heparin; room temperature, 15 min; native 5% PAGE in 0.25x TBE; RNA 0.5-3.0 nM for Kd

**Q.** How did the Kd turn out when “AAGGUGAUAUUUAUGACACGUAAACAUUUAUG [Pot1a-dE]” was run?
**A.** The Kd was 301 nM.

**Q.** For AAGUGUGAUAUAAUUCACUAUAGAGGU [Crisp2-dB], which Kd is on record?
**A.** The Kd was 81.8 nM.

**Q.** For “AAGUGUGAUAUAAUUCACUGGUAGUUUAUCAUAGAGGU [Crisp2-WtB]”, which Kd is on record?
**A.** Its Kd is 33.7 nM.

**Q.** With “AUCAUAGAGGUAGCAUUUUAGUUUAUUCUGUGAACUUCAAAAUUGACU [Crisp2-WtC]” as the sequence, how does the Kd read?
**A.** The Kd was 15.1 nM.

**Q.** Which Kd does the source give for “ACCUCCUAAUGGUAAGUACCCUACUUGUUCUUCAUUUCUU [Crem-Wt]” here?
**A.** Its Kd is 18.9 nM.

**Q.** With “AAGGUGAUAUUUAGUAUAUAGUGACACGUAAACAUUUAUG [Pot1a-Wt]” as the sequence, how does the Kd read?
**A.** Its Kd is 7.82 nM.

**Q.** “AUCAUAGAAUUUUAGUUUAUUCUGUGAACUUCAAAAUUGACU [Crisp2-dC]” was tested. Which Kd did it give?
**A.** The Kd was 70.3 nM.

**Q.** With ACCUCCUAAUUUGUUCUUCAUUUCUU [Crem-dA] as the sequence, how does the Kd read?
**A.** Its Kd is 169 nM.

**Q.** “AAGGUGAUAUUUAGUAUAUAGUGACAAUUUAUG [Pot1a-dA]” was tested. Which Kd did it give?
**A.** The Kd was 7.04 nM.
